This passage reports Kd results from PMC5762417.

Data set [1] deals with Rev WT, labelled with Alexa 555 (HIV-1) (UniProt P04616). Nature of the data set: fluorescence polarisation. A general note: Polarisation of emitted light reports the rotation of a fluorescent probe.
Data set [2] deals with DDX21. Put plainly: EMSA.
The target in data set [3] is Rev (Human immunodeficiency virus 1) (UniProt P04325). Put plainly: fluorescence binding. The settings on record: cited from earlier work.

In general, Kd refers to the equilibrium constant for the complex coming apart. In data set [1], “DDX3 DEAD domain (aa 211-403) (from UniProt O00571 211-403) (domain or fragment)” had a Kd of 200 nM.
In the case of RRE RNA (EMSA), the Kd in data set [2] was 37 nM.
As to “DDX3 (from UniProt O00571 1-662) (enzyme)”, the Kd in data set [1] turned out to be 122 nM.
Take DDX1 DEAD domain (from UniProt Q92499): in data set [3], the Kd was 79 nM.

B1: DDX1 (enzyme)
chain: MAAFSEMGVMPEIAQAVEEMDWLLPTDIQAESIPLILGGGDVLMAAETGSGKTGAFSIPVIQIVYETLKDQQEGKKGKTTIKTGASVLNKWQMNPYDRGSAFAIGSDGLCCQSREVKEWHGCRATKGLMKGKHYYEVSCHDQGLCRVGWSTMQASLDLGTDKFGFGFGGTGKKSHNKQFDNYGEEFTMHDTIGCYLDIDKGHVKFSKNGKDLGLAFEIPPHMKNQALFPACVLKNAELKFNFGEEEFKFPPKDGFVALSKAPDGYIVKSQHSGNAQVTQTKFLPNAPKALIVEPSRELAEQTLNNIKQFKKYIDNPKLRELLIIGGVAARDQLSVLENGVDIVVGTPGRLDDLVSTGKLNLSQVRFLVLDEADGLLSQGYSDFINRMHNQIPQVTSDGKRLQVIVCSATLHSFDVKKLSEKIMHFPTWVDLKGEDSVPDTVHHVVVPVNPKTDRLWERLGKSHIRTDDVHAKDNTRPGANSPEMWSEAIKILKGEYAVRAIKEHKMDQAIIFCRTKIDCDNLEQYFIQQGGGPDKKGHQFSCVCLHGDRKPHERKQNLERFKKGDVRFLICTDVAARGIDIHGVPYVINVTLPDEKQNYVHRIGRVGRAERMGLAISLVATEKEKVWYHVCSSRGKGCYNTRLKEDGGCTIWYNEMQLLSEIEEHLNCTISQVEPDIKVPVDEFDGKVTYGQKRAAGGGSYKGHVDILAPTVQELAALEKEAQTSFLHLGYLPNQLFRTF
B1 came in with a Kd in data set [1] of 41 nM.

B2: DDX21 (enzyme)
chain: MPGKLRSDAGLESDTAMKKGETLRKQTEEKEKKEKPKSDKTEEIAEEEETVFPKAKQVKKKAEPSEVDMNSPKSKKAKKKEEPSQNDISPKTKSLRKKKEPIEKKVVSSKTKKVTKNEEPSEEEIDAPKPKKMKKEKEMNGETREKSPKLKNGFPHPEPDCNPSEAASEESNSEIEQEIPVEQKEGAFSNFPISEETIKLLKGRGVTFLFPIQAKTFHHVYSGKDLIAQARTGTGKTFSFAIPLIEKLHGELQDRKRGRAPQVLVLAPTRELANQVSKDFSDITKKLSVACFYGGTPYGGQFERMRNGIDILVGTPGRIKDHIQNGKLDLTKLKHVVLDEVDQMLDMGFADQVEEILSVAYKKDSEDNPQTLLFSATCPHWVFNVAKKYMKSTYEQVDLIGKKTQKTAITVEHLAIKCHWTQRAAVIGDVIRVYSGHQGRTIIFCETKKEAQELSQNSAIKQDAQSLHGDIPQKQREITLKGFRNGSFGVLVATNVAARGLDIPEVDLVIQSSPPKDVESYIHRSGRTGRAGRTGVCICFYQHKEEYQLVQVEQKAGIKFKRIGVPSATEIIKASSKDAIRLLDSVPPTAISHFKQSAEKLIEEKGAVEALAAALAHISGATSVDQRSLINSNVGFVTMILQCSIEMPNISYAWKELKEQLGEEIDSKVKGMVFLKGKLGVCFDVPTASVTEIQEKWHDSRRWQLSVATEQPELEGPREGYGGFRGQREGSRGFRGQRDGNRRFRGQREGSRGPRGQRSGGGNKSNRSQNKGQKRSFSKAFGQ
In data set [1], B2 registered a Kd of 21 nM.

B3: DDX21(183-620) (domain or fragment)
chain: QKEGAFSNFPISEETIKLLKGRGVTFLFPIQAKTFHHVYSGKDLIAQARTGTGKTFSFAIPLIEKLHGELQDRKRGRAPQVLVLAPTRELANQVSKDFSDITKKLSVACFYGGTPYGGQFERMRNGIDILVGTPGRIKDHIQNGKLDLTKLKHVVLDEVDQMLDMGFADQVEEILSVAYKKDSEDNPQTLLFSATCPHWVFNVAKKYMKSTYEQVDLIGKKTQKTAITVEHLAIKCHWTQRAAVIGDVIRVYSGHQGRTIIFCETKKEAQELSQNSAIKQDAQSLHGDIPQKQREITLKGFRNGSFGVLVATNVAARGLDIPEVDLVIQSSPPKDVESYIHRSGRTGRAGRTGVCICFYQHKEEYQLVQVEQKAGIKFKRIGVPSATEIIKASSKDAIRLLDSVPPTAISHFKQSAEKLIEEKGAVEALAAALAHISG
For the molecule B3, in data set [1], the Kd is 48 nM.

B4: DDX21 DEAD domain (aa 217-396) (domain or fragment)
chain: FHHVYSGKDLIAQARTGTGKTFSFAIPLIEKLHGELQDRKRGRAPQVLVLAPTRELANQVSKDFSDITKKLSVACFYGGTPYGGQFERMRNGIDILVGTPGRIKDHIQNGKLDLTKLKHVVLDEVDQMLDMGFADQVEEILSVAYKKDSEDNPQTLLFSATCPHWVFNVAKKYMKSTYEQ
The molecule B4 displayed a Kd in data set [1] of 60 nM.
